Laboratory results from publication PMC3861120, “A Domesticated PiggyBac Transposase Interacts with Heterochromatin and Catalyzes Reproducible DNA Elimination in Tetrahymena” (PLoS Genetics, 2013).
Where no end group is shown, it is not given here. [ ]: non-standard residue; d: D form. Lys(Me3) = C[N+](C)(C)CCCC[C@H](N)C(=O)O; PEG = not defined here

T1: MBP-tagged cysteine-rich domain (566 aa-657 aa) of Tpb2p, MBP-Tpb2p-CRD (WT) (Tetrahymena thermophila, UniProt D2Z1K6 566-657)
T1 construct: Tpb2p (Tetrahymena piggyBac-like transposase 2), cysteine-rich domain, aa 566-657; amplified from a codon-optimized TPB2 coding region in pMAL-TPB2; Cloned in pMalC2X, which is expected to put MBP at the N-terminus (surmise); also called cysteine-rich domain of Tpb2p; source: E. coli BL21(DE3), purified (Amylose resin, maltose elution, dialysis)
T1 sequence (looked up): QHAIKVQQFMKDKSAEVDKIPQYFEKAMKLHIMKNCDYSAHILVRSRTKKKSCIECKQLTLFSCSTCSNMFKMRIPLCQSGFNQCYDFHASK

B1: Tetrahymena histone H3 peptide, amino acids 1-19, tri-methylated at lysine 9, C-terminally biotinylated (peptide, UniProt P69150 2-20, looked up)
peptide: ARTKQTARKSTGAKAPRKQ
modifications: tri-methylated lysine 9; biotin at the C-terminus with a PEG linker
notes: histone H3, Tetrahymena, amino acids 1-19; also called H3K9me3 peptide; source: synthetic peptide
B2: Tetrahymena histone H3 peptide, amino acids 1-19, tri-methylated at lysine 4, C-terminally biotinylated (peptide, UniProt P69150 2-20, looked up)
peptide: ART[Lys(Me3)]QTARKSTGAKAPRKQ-{PEG-biotin}
modifications: reading uncertain
notes: histone H3, Tetrahymena, amino acids 1-19; That the K4me3 peptide is the 1-19 peptide follows from the position of the residue; also called H3K4me3 peptide; source: synthetic peptide
B3: Tetrahymena histone H3 peptide, amino acids 16-35, tri-methylated at lysine 27, C-terminally biotinylated (peptide, UniProt P69150 17-36, looked up)
peptide: PRKQLASKAAR[Lys(Me3)]SAPATGGI-{PEG-biotin}
modifications: reading uncertain
notes: histone H3, Tetrahymena, amino acids 16-35; also called H3K27me3 peptide; source: synthetic peptide
B4: Tetrahymena histone H3 peptide, amino acids 16-35, unmodified, C-terminally biotinylated (peptide, UniProt P69150 17-36, looked up)
peptide: PRKQLASKAARKSAPATGGI-{PEG-biotin}
modifications: reading uncertain
notes: histone H3, Tetrahymena, amino acids 16-35; also called unmodified peptide (16-35); source: synthetic peptide
B5: Tetrahymena histone H3 peptide, amino acids 1-19, unmodified, C-terminally biotinylated (peptide, UniProt P69150 2-20, looked up)
peptide: ARTKQTARKSTGAKAPRKQ-{PEG-biotin}
modifications: reading uncertain
notes: histone H3, Tetrahymena, amino acids 1-19; also called unmodified peptide (1-19); source: synthetic peptide

What follows are binders tested against T1, MBP-tagged cysteine-rich domain (566 …) (assay: pull-down; biotin-tagged histone peptides (1 ug) immobilised on streptavidin Dynabeads, 1 ug MBP-Tpb2p-CRD added, overnight at 4°C; 10 mM Tris pH 7.5, 0.1 mM ZnSO4, 0.05% NP40, 250 mM NaCl; western blot with anti-MBP). Settings: both partners purified.

binding result	Binder
binds	B1
binds	B2
binds	B3
binds	B4
binds	B5
